# Publication doi:10.1101/2023.05.01.538930 (bioRxiv, 2023)
# T1: GajA of the Gabija system from Bacillus cereus VD045 (Bacillus cereus VD045, UniProt J8H9C1 1-578)
# T1 sequence (looked up): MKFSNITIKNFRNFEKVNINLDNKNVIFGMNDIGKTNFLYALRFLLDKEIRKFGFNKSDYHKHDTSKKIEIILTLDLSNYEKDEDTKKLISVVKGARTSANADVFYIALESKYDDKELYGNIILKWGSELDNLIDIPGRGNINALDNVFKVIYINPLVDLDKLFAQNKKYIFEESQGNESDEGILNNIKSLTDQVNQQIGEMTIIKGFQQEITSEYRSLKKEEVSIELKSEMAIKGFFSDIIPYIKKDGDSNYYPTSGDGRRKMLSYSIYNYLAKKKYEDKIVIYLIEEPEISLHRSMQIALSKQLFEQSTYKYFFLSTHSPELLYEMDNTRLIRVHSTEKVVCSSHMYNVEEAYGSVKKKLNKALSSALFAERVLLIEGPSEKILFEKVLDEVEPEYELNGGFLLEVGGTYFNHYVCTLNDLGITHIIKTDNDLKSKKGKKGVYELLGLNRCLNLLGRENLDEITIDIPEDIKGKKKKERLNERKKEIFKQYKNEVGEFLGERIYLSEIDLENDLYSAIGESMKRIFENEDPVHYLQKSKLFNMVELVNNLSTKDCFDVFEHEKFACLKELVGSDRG
# B1: Tad2 from phage SPO1 (construct for crystallization) (natural protein, Bacillus phage SPO1)
# chain: MKTKMSFGEALEVLKQGMQVYRSGWNGKNMFLFLKSSDALASDFGFGFGEYINEPVFGNIIFIKTADNKIHAWVPSQTDVLAEDWDIVS
# B2: GajB of the Gabija system from Bacillus cereus VD045 (natural protein, UniProt J8HQ06 1-494, looked up)
# chain: MSREQIIKDGGNILVTAGAGSGKTTILVSKIEADLKENKTHYSIAAVTFTNKAAKEIEGRLGYSSRGNFIGTNDGFVESEIIRPFIKDAFGNDYPDNFTAEYFDNQFASYDKGLQVLKYQNILGTYSNPKKNFKFQLALDILKKSLVARQYIFSKYFKIFIDEYQDSDKDMHNLFMYLKDQLKIKLFIVGDPKQSIYIWRGAEPENFNGLIENSTDFNKYHLTSNFRCCQDIQNYSNLFNEETRSLIKEKNEVQNVISIADDMPISDILLKLTEEKQVLNIEAELVILVRRRNQAIEIMKELNEEGFNFIFIPQTPLDRATPNATLLKEVIKYVKNDRYSIYDLAAEIVGNLSSREIKEIQKIINELLVPNINQVLINQVLINLFAKLEITLDTREITAFTEVMMTNEFDIAFDTNEYLHKIFTVHSAKGLEFNQVIITASDYNVHYNRDTNEHYVATTRAKDKLIVIMDNKKYSDYIETLMKELKIKNIIKSI
# Legend:
# [1] = target: the molecule itself; test: crystal structure
# [2] = target: T1, GajA of the Gabija system from Bacillus …; test: reconstitution of the complex from purified proteins
binder,measurement,setting,value
B1,stoichiometry N,[1],4
B2,binding result,[2],binds
